Tests used:
[1] = molecular target: T1, KIFC3 peptide ASDWEYTITVSAAEI (human); experiment: peptide microarray epitope mapping (binding stretch)
T1 peptide: ASDWEYTITVSAAEI

[2] = molecular target: T2, KIFC3 peptide DWEYTITVSAAEIYN (human); experiment: as above
T2 peptide: DWEYTITVSAAEIYN

[3] = molecular target: T3, KIFC3 peptide LGSWSSQEHLEWEPA (human); experiment: as above
T3 peptide: LGSWSSQEHLEWEPA

[4] = molecular target: T4, KIFC3 peptide EYTITVSAAEIYNEV (human); experiment: as above
T4 peptide: EYTITVSAAEIYNEV

[5] = molecular target: T5, KIFC3 peptide AELGSWSSQEHLEWE (human); experiment: as above
T5 peptide: AELGSWSSQEHLEWE

[6] = molecular target: T6, KIFC3 peptide SWSSQEHLEWEPACQ (human); experiment: as above
T6 peptide: SWSSQEHLEWEPACQ

aminoacylase 3 = molecular target: T7, aminoacylase 3 (human, UniProt Q96HD9 1-319); experiment: custom ELISA
T7 construct: Also the protein of the custom ELISA; also called ACY3
T7 sequence (looked up): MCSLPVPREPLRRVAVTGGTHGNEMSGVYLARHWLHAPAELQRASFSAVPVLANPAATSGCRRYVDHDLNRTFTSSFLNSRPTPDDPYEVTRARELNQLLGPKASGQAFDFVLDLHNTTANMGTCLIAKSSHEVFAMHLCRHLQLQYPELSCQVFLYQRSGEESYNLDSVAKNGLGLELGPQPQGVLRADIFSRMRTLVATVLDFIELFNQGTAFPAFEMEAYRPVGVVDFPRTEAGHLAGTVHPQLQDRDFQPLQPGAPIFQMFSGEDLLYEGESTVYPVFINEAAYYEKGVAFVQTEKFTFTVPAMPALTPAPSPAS

[7] = molecular target: T8, DDX53 peptide EAKVRIFGNREMKAK (human); experiment: peptide microarray epitope mapping (binding stretch)
T8 peptide: EAKVRIFGNREMKAK

[8] = molecular target: T9, DDX53 peptide SGEKRLIPKPTCRFK (human); experiment: as above
T9 peptide: SGEKRLIPKPTCRFK

[9] = molecular target: T10, DDX53 peptide KVRIFGNREMKAKAK (human); experiment: as above
T10 peptide: KVRIFGNREMKAKAK

[10] = molecular target: T11, DDX53 peptide RIFGNREMKAKAKAA (human); experiment: as above
T11 peptide: RIFGNREMKAKAKAA

[11] = molecular target: T12, DDX53 peptide GLDLNDVTHVYNYDF (human); experiment: as above
T12 peptide: GLDLNDVTHVYNYDF

[12] = molecular target: T13, DDX53 peptide SRGLDLNDVTHVYNY (human); experiment: as above
T13 peptide: SRGLDLNDVTHVYNY

[13] = molecular target: T14, DDX53 peptide LKSGEKRLIPKPTCR (human); experiment: as above
T14 peptide: LKSGEKRLIPKPTCR

[14] = molecular target: T15, DDX53 peptide HVYNYDFPRNIDVYV (human); experiment: as above
T15 peptide: HVYNYDFPRNIDVYV

DEAD-box helicase 53 = molecular target: T16, DEAD-box helicase 53 (human, UniProt Q86TM3 1-631); experiment: custom ELISA
T16 construct: Also the protein of the custom ELISA; also called DDX53; CAGE
T16 sequence (Q86TM3 whole entry): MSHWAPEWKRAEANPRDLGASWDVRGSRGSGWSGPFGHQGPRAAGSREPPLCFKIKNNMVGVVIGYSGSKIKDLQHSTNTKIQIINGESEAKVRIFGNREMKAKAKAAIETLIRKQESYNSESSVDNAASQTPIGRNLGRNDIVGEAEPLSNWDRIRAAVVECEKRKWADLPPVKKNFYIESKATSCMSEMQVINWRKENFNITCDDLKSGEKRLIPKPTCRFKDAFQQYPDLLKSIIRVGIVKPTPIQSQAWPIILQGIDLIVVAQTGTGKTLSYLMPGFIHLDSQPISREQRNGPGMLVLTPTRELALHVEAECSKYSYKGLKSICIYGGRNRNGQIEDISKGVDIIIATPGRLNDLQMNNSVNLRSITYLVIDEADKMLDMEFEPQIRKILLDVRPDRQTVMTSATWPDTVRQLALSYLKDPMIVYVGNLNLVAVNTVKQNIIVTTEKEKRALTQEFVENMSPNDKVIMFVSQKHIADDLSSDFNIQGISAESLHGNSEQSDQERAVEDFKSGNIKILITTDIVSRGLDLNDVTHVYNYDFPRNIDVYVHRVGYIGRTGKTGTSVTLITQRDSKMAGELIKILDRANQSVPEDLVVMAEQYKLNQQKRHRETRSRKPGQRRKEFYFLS

[15] = molecular target: T17, AKR1A1 peptide ADLQLEYLDLYLMHW (human); experiment: peptide microarray epitope mapping (binding stretch)
T17 peptide: ADLQLEYLDLYLMHW

[16] = molecular target: T18, AKR1A1 peptide LQLEYLDLYLMHWPY (human); experiment: as above
T18 peptide: LQLEYLDLYLMHWPY

[17] = molecular target: T19, AKR1A1 peptide MLTVDGKRVPRDAGH (human); experiment: as above
T19 peptide: MLTVDGKRVPRDAGH

[18] = molecular target: T20, AKR1A1 peptide LEYLDLYLMHWPYAF (human); experiment: as above
T20 peptide: LEYLDLYLMHWPYAF

[19] = molecular target: T21, AKR1A1 peptide TVDGKRVPRDAGHPL (human); experiment: as above
T21 peptide: TVDGKRVPRDAGHPL

[20] = molecular target: T22, AKR1A1 peptide VPMLTVDGKRVPRDA (human); experiment: as above
T22 peptide: VPMLTVDGKRVPRDA

[21] = molecular target: T23, AKR1A1 peptide TLADLQLEYLDLYLM (human); experiment: as above
T23 peptide: TLADLQLEYLDLYLM

[22] = molecular target: T24, AKR1A1 peptide YIVPMLTVDGKRVPR (human); experiment: as above
T24 peptide: YIVPMLTVDGKRVPR

[23] = molecular target: T25, AKR1A1 peptide WRYIVPMLTVDGKRV (human); experiment: as above
T25 peptide: WRYIVPMLTVDGKRV

[24] = molecular target: T26, AKR1A1 peptide RKTLADLQLEYLDLY (human); experiment: as above
T26 peptide: RKTLADLQLEYLDLY

[25] = molecular target: T27, phosphoribosylglycinamide formyltransferase, phosphoribosylglycinamide synthetase, … (human, UniProt P22102-2 1-433); experiment: custom ELISA
T27 construct: Also the protein of the custom ELISA; also called GART
T27 sequence (looked up): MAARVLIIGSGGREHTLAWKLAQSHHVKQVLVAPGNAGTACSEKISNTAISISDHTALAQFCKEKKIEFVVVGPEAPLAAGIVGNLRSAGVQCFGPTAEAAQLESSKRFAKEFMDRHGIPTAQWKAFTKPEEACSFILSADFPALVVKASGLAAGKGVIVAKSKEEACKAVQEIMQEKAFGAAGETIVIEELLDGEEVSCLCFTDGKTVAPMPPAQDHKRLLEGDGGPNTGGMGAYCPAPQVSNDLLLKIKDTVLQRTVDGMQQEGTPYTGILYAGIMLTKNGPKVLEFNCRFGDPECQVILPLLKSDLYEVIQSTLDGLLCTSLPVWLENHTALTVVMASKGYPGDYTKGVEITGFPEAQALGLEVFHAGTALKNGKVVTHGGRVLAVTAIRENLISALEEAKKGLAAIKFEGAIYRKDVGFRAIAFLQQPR

[26] = molecular target: T28, microtubule associated scaffold protein 2 (human, UniProt Q5JR59-3 1-348); experiment: custom ELISA
T28 construct: Also the protein of the custom ELISA; also called MTUS2; microtubule associated tumor suppressor candidate 2
T28 sequence (looked up): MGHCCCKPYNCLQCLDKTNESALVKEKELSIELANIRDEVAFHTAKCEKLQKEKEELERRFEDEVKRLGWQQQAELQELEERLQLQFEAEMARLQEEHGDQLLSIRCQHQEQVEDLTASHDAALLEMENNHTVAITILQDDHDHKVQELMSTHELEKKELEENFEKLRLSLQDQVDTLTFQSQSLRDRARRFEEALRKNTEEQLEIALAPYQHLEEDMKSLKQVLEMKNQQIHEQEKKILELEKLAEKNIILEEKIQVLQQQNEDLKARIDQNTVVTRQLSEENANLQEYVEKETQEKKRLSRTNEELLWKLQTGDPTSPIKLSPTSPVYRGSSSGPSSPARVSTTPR

[27] = molecular target: T29, peptidylprolyl isomerase like 1 (human, UniProt Q9Y3C6 1-166); experiment: custom ELISA
T29 construct: Also the protein of the custom ELISA; also called PPIL1
T29 sequence (looked up): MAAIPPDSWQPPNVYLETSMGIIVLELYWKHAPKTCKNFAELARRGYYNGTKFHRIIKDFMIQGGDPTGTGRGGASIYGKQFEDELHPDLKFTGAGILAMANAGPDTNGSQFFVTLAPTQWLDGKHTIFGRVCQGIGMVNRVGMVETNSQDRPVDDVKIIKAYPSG

[28] = molecular target: T30, magnesium dependent phosphatase 1 (human, UniProt Q86V88 1-176); experiment: custom ELISA
T30 construct: Also the protein of the custom ELISA; also called MDP1
T30 sequence (Q86V88 whole entry): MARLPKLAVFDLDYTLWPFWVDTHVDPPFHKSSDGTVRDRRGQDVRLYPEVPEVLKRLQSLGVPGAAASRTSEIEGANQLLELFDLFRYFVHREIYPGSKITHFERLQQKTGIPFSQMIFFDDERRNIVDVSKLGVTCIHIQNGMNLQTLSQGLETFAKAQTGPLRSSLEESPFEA

kinesin family member C3 = molecular target: T31, kinesin family member C3 (human, UniProt Q9BVG8-5 1-687); experiment: custom ELISA
T31 construct: Also the protein of the custom ELISA; also called KIFC3
T31 sequence (looked up): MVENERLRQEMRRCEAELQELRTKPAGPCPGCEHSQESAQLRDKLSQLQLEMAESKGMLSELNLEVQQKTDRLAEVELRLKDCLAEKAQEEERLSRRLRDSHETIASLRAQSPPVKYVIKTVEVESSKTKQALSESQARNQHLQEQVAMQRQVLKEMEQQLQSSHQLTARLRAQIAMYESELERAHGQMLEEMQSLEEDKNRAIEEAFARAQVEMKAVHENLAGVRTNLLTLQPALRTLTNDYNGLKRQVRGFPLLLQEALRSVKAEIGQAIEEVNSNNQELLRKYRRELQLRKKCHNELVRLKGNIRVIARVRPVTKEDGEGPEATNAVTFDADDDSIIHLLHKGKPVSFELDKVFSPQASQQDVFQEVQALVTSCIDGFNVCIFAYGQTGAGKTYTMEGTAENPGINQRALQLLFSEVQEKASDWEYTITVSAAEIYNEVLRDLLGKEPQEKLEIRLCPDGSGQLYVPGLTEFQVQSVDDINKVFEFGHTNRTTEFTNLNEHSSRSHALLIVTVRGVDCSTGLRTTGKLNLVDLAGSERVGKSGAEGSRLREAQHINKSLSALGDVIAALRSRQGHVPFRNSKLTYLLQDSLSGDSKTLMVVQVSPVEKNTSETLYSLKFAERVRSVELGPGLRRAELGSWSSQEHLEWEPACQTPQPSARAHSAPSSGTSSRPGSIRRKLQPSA

[29] = molecular target: T32, aldo-keto reductase family 1 member A1 (human, UniProt P14550 1-325); experiment: custom ELISA
T32 construct: Also the protein of the custom ELISA; also called AKR1A1
T32 sequence (looked up): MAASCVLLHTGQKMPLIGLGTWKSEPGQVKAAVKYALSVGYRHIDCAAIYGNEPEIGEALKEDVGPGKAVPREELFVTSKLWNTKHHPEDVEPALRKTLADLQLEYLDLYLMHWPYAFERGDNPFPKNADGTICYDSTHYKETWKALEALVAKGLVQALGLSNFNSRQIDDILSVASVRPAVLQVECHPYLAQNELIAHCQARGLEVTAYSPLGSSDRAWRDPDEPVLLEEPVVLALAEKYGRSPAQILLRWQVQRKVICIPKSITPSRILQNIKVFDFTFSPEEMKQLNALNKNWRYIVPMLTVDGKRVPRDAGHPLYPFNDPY

B1: recombinant antibody P1-F6 (antibody, V domains shown)
VH: QVPLKESGPALVKPTRTLTLTCTFSGFSLSTNGVSVGWIRQPPGKALDWLALIYWNDDKRYSPSLKNRLTITKDTSKNLVVLRMTNMDPVDTATYYCAHRPIASSRDGFDYWGQGTLVTVSS
VL: DIQMTQFPSTLSASVGETVTISCRASQSVSGWLAWYQQKPGKAPKLLMYKASALENGVPSRFSGSGSGTEFTLTISSLQPDDFATYYCQQYNGFPFTFGPGTKVDIN
notes: also called clone P1-F6
B1: binds [1]; binds [2]; binds [3]. B1: binds [4]; binds [5]; binds [6]. B1: binds (aminoacylase 3).

B2: recombinant antibody P1-B4 (antibody, V domains shown)
VH: QVQLVESGPEVKKPGASVKVSCKASGYTFTSYGISWVRQAPGQGLEWMGWISVYKSDTNDAQKFQGRVTMTTDTSTSTAYMELRSLRSDDTAVYYCARSRGIVGSTLDDNWGQGTLVTVSS
VL: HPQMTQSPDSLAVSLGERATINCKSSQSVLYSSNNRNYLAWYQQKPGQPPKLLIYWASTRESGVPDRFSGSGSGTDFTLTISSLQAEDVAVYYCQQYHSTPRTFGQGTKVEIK
notes: also called clone P1-B4
B2: binds [7]; binds [8]; binds [9]. B2: binds [10]; binds [11]; binds [12]. B2: binds [13]; binds [14]; binds (DEAD-box helicase 53).

B3: recombinant antibody P3-F1 (antibody, V domains shown)
VH: QVQLVESGPTLVKPTQTLTVTCTFSGFSLNTRAVGVGWIRQPPGGALEWLALVYWDDDKRYSPSLKNRLTITKDTSRNQVVLTLTNVAPVDTGTYYCSHHRLTDGRLRWGQGTLVTVSS
VL: QVQLVQSPGTLSLSPGERATLSCRASQSITSSYLAWYQQKFGQAPRLLIYRASNRATGIPDRFSGSGSGTDFTLTISSLESEDFAVYYCQQYDTSPWTFGQGTKVEIK
notes: also called clone P3-F1
B3: binds [15]; binds [16]; binds [17]. B3: binds [18]; binds [19]; binds [20]. B3: binds [21]; binds [22]; binds [23]. B3: binds [24]; no binding [25]; no binding [26]. B3: no binding [27]; no binding [28]; no binding (aminoacylase 3). B3: no binding (kinesin family member C3); no binding (DEAD-box helicase 53); binds [29].

Reference: patent publication EP4613775A1 (Eberhard Karls Universität Tübingen Medizinische Fakultät, dated 2025)
